Test results reported in publication PMC5927464 (2018).

B2: (His)6-L* (purified recombinant L*DA) (natural protein)
chain: MDTQMCALFAQPLTLLPDLNICSWQTVNGSQRTFFVWTWTMTSSGLRTRAINLKQWNGLTYRSYAILSWNPRETPLHLTRVTPSPQVTKGSLLTTSIPINTKIQLICLPAVAMLATPPKTTDNCRTSWAALQMLLLLWHLSSWIKTQRRWRISLTE

Tests used:
[1] = biological target: T1, mouse RNase L (Mus musculus (mouse)) (UniProt Q05921); experiment: SPR competition; conditions: 2'-5' phosphodiester linkages; 5'-triphosphate; trimer p3A2'p5'A2'p5'A assumed (oligomer length used in SPR not stated); SPR on Biacore 3000; HBS-P SPR buffer (0.005% surfactant P20), 10 ul/min, 3 min association, 5 min dissociation, 25 C stated for GST-RNase L capture; 1:1 …
T1 sequence: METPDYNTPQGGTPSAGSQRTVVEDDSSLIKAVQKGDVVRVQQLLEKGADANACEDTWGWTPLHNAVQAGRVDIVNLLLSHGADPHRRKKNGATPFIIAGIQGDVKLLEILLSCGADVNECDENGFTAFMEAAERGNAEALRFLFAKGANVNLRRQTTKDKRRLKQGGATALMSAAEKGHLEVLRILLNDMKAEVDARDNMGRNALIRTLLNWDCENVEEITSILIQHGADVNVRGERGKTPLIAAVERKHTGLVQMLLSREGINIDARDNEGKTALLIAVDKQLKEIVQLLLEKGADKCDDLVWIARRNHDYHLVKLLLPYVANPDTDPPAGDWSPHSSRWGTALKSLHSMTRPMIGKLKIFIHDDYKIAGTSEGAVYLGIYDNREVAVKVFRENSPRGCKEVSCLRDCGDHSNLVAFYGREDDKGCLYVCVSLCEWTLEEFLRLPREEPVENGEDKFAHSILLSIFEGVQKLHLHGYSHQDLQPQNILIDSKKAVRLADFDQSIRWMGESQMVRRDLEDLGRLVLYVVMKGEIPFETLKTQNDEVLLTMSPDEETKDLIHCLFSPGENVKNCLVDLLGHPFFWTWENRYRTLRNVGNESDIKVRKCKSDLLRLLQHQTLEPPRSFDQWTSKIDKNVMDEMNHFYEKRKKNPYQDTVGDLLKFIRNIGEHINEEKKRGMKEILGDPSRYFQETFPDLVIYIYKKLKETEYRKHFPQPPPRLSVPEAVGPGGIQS

[2] = biological target: (His)6-L* (purified recombinant L*DA) (Theiler's murine encephalomyelitis virus, strain DA); experiment: SPR; Biacore 3000; (His)6-L* immobilized on Ni-NTA chips, mouse or human RNase L injected; 10 μl/min, 3 min association, 5 min dissociation; 1:1 Langmuir model, global fitting
[3] = biological target: B2; experiment: SPR; immobilized L*
[4] = biological target: B2; experiment: SPR; immobilized L*
[5] = biological target: T2, purified recombinant GST-tagged murine RNase L (mouse, UniProt Q05921 1-735); experiment: SPR; immobilized mouse RNase L
T2 chain: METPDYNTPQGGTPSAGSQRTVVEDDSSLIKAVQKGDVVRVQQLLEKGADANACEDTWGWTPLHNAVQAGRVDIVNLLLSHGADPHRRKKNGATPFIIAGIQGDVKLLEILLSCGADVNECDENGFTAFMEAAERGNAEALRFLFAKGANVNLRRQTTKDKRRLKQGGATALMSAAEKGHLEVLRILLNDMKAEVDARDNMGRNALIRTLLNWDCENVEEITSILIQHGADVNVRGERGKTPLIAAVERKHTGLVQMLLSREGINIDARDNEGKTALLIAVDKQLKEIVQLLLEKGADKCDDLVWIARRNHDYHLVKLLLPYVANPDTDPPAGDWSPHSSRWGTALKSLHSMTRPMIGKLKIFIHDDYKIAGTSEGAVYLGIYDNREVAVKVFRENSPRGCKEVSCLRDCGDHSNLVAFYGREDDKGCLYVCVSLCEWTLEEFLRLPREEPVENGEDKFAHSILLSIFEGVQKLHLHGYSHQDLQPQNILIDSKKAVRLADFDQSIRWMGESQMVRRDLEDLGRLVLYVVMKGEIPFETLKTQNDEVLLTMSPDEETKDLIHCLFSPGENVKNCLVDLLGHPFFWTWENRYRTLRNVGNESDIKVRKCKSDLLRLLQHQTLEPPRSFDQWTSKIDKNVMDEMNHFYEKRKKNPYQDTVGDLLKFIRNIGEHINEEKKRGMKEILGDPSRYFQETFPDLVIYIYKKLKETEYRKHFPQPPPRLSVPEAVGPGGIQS

[6] = biological target: T2, purified recombinant GST-tagged murine …; experiment: SPR; immobilized mouse RNase L
[7] = biological target: T2, purified recombinant GST-tagged murine …; experiment: SPR; immobilized mouse RNase L

## AAA [2-5A (unlabeled)]
[1]
  IC50: 13.2 nM

B1: purified recombinant mouse RNase L (enzyme)
chain: METPDYNTPQGGTPSAGSQRTVVEDDSSLIKAVQKGDVVRVQQLLEKGADANACEDTWGWTPLHNAVQAGRVDIVNLLLSHGADPHRRKKNGATPFIIAGIQGDVKLLEILLSCGADVNECDENGFTAFMEAAERGNAEALRFLFAKGANVNLRRQTTKDKRRLKQGGATALMSAAEKGHLEVLRILLNDMKAEVDARDNMGRNALIRTLLNWDCENVEEITSILIQHGADVNVRGERGKTPLIAAVERKHTGLVQMLLSREGINIDARDNEGKTALLIAVDKQLKEIVQLLLEKGADKCDDLVWIARRNHDYHLVKLLLPYVANPDTDPPAGDWSPHSSRWGTALKSLHSMTRPMIGKLKIFIHDDYKIAGTSEGAVYLGIYDNREVAVKVFRENSPRGCKEVSCLRDCGDHSNLVAFYGREDDKGCLYVCVSLCEWTLEEFLRLPREEPVENGEDKFAHSILLSIFEGVQKLHLHGYSHQDLQPQNILIDSKKAVRLADFDQSIRWMGESQMVRRDLEDLGRLVLYVVMKGEIPFETLKTQNDEVLLTMSPDEETKDLIHCLFSPGENVKNCLVDLLGHPFFWTWENRYRTLRNVGNESDIKVRKCKSDLLRLLQHQTLEPPRSFDQWTSKIDKNVMDEMNHFYEKRKKNPYQDTVGDLLKFIRNIGEHINEEKKRGMKEILGDPSRYFQETFPDLVIYIYKKLKETEYRKHFPQPPPRLSVPEAVGPGGIQS
[2]
  Kd: 1300 nM
[3]
  koff: 0.0027 s⁻¹
[4]
  Ka: 760000 M⁻¹

## B2
[5]
  koff: 0.0015 s⁻¹
[6]
  Ka: 2e+06 M⁻¹
[7]
  Kd: 490 nM
